Values joined by “and” are separate entries in the source; they are usually repeats but may differ in a detail not shown here. Equal entries are not always repeated.
Experiments:
[1] = biological target: EVA-4 (UniProt P0C8E9); assay: not stated; Kd of EVA-4 for human chemokines, three readings (source data of Supplementary Fig. 7); method and conditions not told for EVA-4
[2] = biological target: EVA-A(DN) (Amblyomma americanum); assay: SPR
[3] = biological target: EVA-A(C8) (A. americanum); assay: SPR
[4] = biological target: EVA-A(C8) (Amblyomma americanum); assay: SPR
[5] = biological target: EVA-A(1-98) (A. americanum); assay: SPR
[6] = biological target: EVA-A(21-102) (A. americanum); assay: SPR
[7] = biological target: EVA-A(L39P) (Amblyomma americanum); assay: SPR
[8] = biological target: EVA-A(Y44A) (Amblyomma americanum); assay: SPR
[9] = biological target: EVA-A(DC) (Amblyomma americanum); assay: SPR
[10] = biological target: EVA-A(L39P) (A. americanum); assay: SPR
[11] = biological target: EVA-A(Y44A) (A. americanum); assay: SPR

Sequence of CCL19 (Q99731 22-98): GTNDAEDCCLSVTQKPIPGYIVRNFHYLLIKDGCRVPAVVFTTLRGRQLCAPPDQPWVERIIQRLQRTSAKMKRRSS
Sequence of CCL18 (P55774 21-89): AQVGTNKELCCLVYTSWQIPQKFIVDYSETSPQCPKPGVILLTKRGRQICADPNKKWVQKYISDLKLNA
Sequence of CCL24 (O00175 27-119): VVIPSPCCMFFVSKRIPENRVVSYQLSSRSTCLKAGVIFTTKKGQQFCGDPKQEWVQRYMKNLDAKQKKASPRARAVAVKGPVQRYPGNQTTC
Sequence of CCL26 (Q9Y258 24-94): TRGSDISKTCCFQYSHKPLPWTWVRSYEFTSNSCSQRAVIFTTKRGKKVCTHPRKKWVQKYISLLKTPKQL
Sequence of CCL13, Q99616 17-98 (ligand; other documents disagree on this pair) (Q99616 17-98): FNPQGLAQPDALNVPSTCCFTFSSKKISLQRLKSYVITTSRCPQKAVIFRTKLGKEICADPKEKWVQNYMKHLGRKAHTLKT

Substance | Kd [2] | koff [2] | kon [2] | Kd [3] | koff [3] | kon [3] | Kd [4] | kon [4] | Kd [5] | koff [5] | kon [5] | Kd [6] | koff [6] | Kd [7] | kon [7] | Kd [8] | koff [8] | kon [8] | Kd [9] | kon [9] | further results
CCL13, Q99616 17-98 (ligand; other documents disagree on this pair) | – | – | – | – | – | – | – | – | – | – | – | – | – | – | – | – | – | – | – | – | Kd [1]: 258 nM and 234 nM and 267 nM
CCL16 (from UniProt O15467 24-120) (ligand) | 0.223 nM and 0.225 nM and 0.22 nM | 0.000191 s⁻¹ and 0.000182 s⁻¹ and 0.000181 s⁻¹ | 858000 M⁻¹ s⁻¹ and 809000 M⁻¹ s⁻¹ and 826000 M⁻¹ s⁻¹ | 1.9 nM | 0.00075 s⁻¹ | 396000 M⁻¹ s⁻¹ | 1.95 nM and 1.84 nM | 341000 M⁻¹ s⁻¹ and 451000 M⁻¹ s⁻¹ | < 0.1 nM | < 0.0001 s⁻¹ | 258000 M⁻¹ s⁻¹ | 0.22 nM | 0.00019 s⁻¹ | 0.188 nM and 0.138 nM | 1.2e+06 M⁻¹ s⁻¹ and 1.15e+06 M⁻¹ s⁻¹ | 0.181 nM and 0.268 nM and 0.148 nM | 0.0001 s⁻¹ and 0.000143 s⁻¹ and 0.000134 s⁻¹ | 552000 M⁻¹ s⁻¹ and 534000 M⁻¹ s⁻¹ and 906000 M⁻¹ s⁻¹ | 0.000499 nM and 0.00352 nM and 0.00269 nM | 256000 M⁻¹ s⁻¹ and 253000 M⁻¹ s⁻¹ and 265000 M⁻¹ s⁻¹ | koff [4]: 0.000666 s⁻¹ and 0.000831 s⁻¹; kon [6]: 831000 M⁻¹ s⁻¹; koff [7]: 0.000226 s⁻¹ and 0.000159 s⁻¹; Kd [10]: 0.17 nM; koff [10]: 0.00016 s⁻¹; kon [10]: 1.18e+06 M⁻¹ s⁻¹; Kd [11]: 0.2 nM; koff [11]: 0.00013 s⁻¹; kon [11]: 664000 M⁻¹ s⁻¹; Kd [1]: 2.31 nM and 4.95 nM and 5 nM
CCL18 (from UniProt P55774 21-89) (ligand) | 0.000563 nM and 0.000228 nM and 0.000552 nM | 1.04e-06 s⁻¹ and 4.52e-07 s⁻¹ and 5.08e-07 s⁻¹ | 1.86e+06 M⁻¹ s⁻¹ and 1.98e+06 M⁻¹ s⁻¹ and 921000 M⁻¹ s⁻¹ | < 0.1 nM | < 0.0001 s⁻¹ | 837000 M⁻¹ s⁻¹ | 0.0591 nM and 0.0302 nM and 0.0473 nM | 943000 M⁻¹ s⁻¹ and 758000 M⁻¹ s⁻¹ and 810000 M⁻¹ s⁻¹ | < 0.1 nM | < 0.0001 s⁻¹ | 443000 M⁻¹ s⁻¹ | < 0.1 nM | < 0.0001 s⁻¹ | 0.00439 nM and 0.00871 nM and 0.0273 nM | 3.31e+06 M⁻¹ s⁻¹ and 3.54e+06 M⁻¹ s⁻¹ and 4.37e+06 M⁻¹ s⁻¹ | 0.0553 nM and 0.0303 nM and 0.0163 nM | 7.08e-05 s⁻¹ and 5.3e-05 s⁻¹ and 3.33e-05 s⁻¹ | 1.28e+06 M⁻¹ s⁻¹ and 1.75e+06 M⁻¹ s⁻¹ and 2.05e+06 M⁻¹ s⁻¹ | 0.00073 nM and 0.00413 nM and 0.00277 nM | 496000 M⁻¹ s⁻¹ and 427000 M⁻¹ s⁻¹ and 406000 M⁻¹ s⁻¹ | koff [4]: 5.57e-05 s⁻¹ and 2.29e-05 s⁻¹ and 3.83e-05 s⁻¹; kon [6]: 1.59e+06 M⁻¹ s⁻¹; Kd [10]: < 0.1 nM; koff [10]: < 0.0001 s⁻¹; kon [10]: 3.74e+06 M⁻¹ s⁻¹; Kd [11]: < 0.1 nM; koff [11]: < 0.0001 s⁻¹; kon [11]: 1.69e+06 M⁻¹ s⁻¹
CCL19 (from UniProt Q99731 22-98) (ligand) | 1.34 nM and 1.49 nM and 1.92 nM | 0.000471 s⁻¹ and 0.000557 s⁻¹ and 0.000576 s⁻¹ | 352000 M⁻¹ s⁻¹ and 373000 M⁻¹ s⁻¹ and 301000 M⁻¹ s⁻¹ | 16.1 nM | 0.00345 s⁻¹ | 245000 M⁻¹ s⁻¹ | 13.2 nM and 15.6 nM and 19.7 nM | – | 0.16 nM | 3e-05 s⁻¹ | 144000 M⁻¹ s⁻¹ | 1.58 nM | 0.00053 s⁻¹ | 1.4 nM and 1 nM and 1.62 nM | 233000 M⁻¹ s⁻¹ and 348000 M⁻¹ s⁻¹ and 252000 M⁻¹ s⁻¹ | 0.676 nM and 0.642 nM and 0.935 nM | 0.000322 s⁻¹ and 0.000363 s⁻¹ and 0.000401 s⁻¹ | 477000 M⁻¹ s⁻¹ and 566000 M⁻¹ s⁻¹ and 428000 M⁻¹ s⁻¹ | 0.209 nM and 0.0874 nM and 0.187 nM | 151000 M⁻¹ s⁻¹ and 134000 M⁻¹ s⁻¹ and 147000 M⁻¹ s⁻¹ | kon [6]: 342000 M⁻¹ s⁻¹; koff [7]: 0.000327 s⁻¹ and 0.000349 s⁻¹ and 0.000407 s⁻¹; koff [9]: 3.17e-05 s⁻¹ and 1.17e-05 s⁻¹ and 2.75e-05 s⁻¹; Kd [10]: 1.34 nM; koff [10]: 0.00036 s⁻¹; kon [10]: 278000 M⁻¹ s⁻¹; Kd [11]: 0.75 nM; koff [11]: 0.00036 s⁻¹; kon [11]: 490000 M⁻¹ s⁻¹
CCL23 (ligand) | 0.168 nM and 0.972 nM and 0.384 nM | – | 53100 M⁻¹ s⁻¹ and 56200 M⁻¹ s⁻¹ and 152000 M⁻¹ s⁻¹ | – | – | – | 13 nM and 34.4 nM and 13.6 nM | 89700 M⁻¹ s⁻¹ and 45800 M⁻¹ s⁻¹ and 87600 M⁻¹ s⁻¹ | – | – | – | – | – | 1.15 nM and 0.794 nM and 1.49 nM | 107000 M⁻¹ s⁻¹ and 201000 M⁻¹ s⁻¹ and 113000 M⁻¹ s⁻¹ | 15.2 nM and 26.4 nM and 14.7 nM | 0.00168 s⁻¹ and 0.00185 s⁻¹ and 0.00176 s⁻¹ | 111000 M⁻¹ s⁻¹ and 70100 M⁻¹ s⁻¹ and 120000 M⁻¹ s⁻¹ | 0.105 nM and 0.44 nM and 0.794 nM | 144000 M⁻¹ s⁻¹ and 85600 M⁻¹ s⁻¹ and 201000 M⁻¹ s⁻¹ | koff [4]: 0.00116 s⁻¹ and 0.00157 s⁻¹ and 0.0012 s⁻¹; koff [7]: 0.000123 s⁻¹ and 0.00016 s⁻¹ and 0.000168 s⁻¹; Kd [1]: 7.43 nM and 7.41 nM and 7.39 nM
CCL24 (from UniProt O00175 27-119) (ligand) | 19.3 nM and 20.8 nM and 19.7 nM | 0.000922 s⁻¹ and 0.00125 s⁻¹ and 0.000564 s⁻¹ | 47700 M⁻¹ s⁻¹ and 60300 M⁻¹ s⁻¹ and 28700 M⁻¹ s⁻¹ | 447 nM | 0.00869 s⁻¹ | 18000 M⁻¹ s⁻¹ | 697 nM and 394 nM and 252 nM | 23800 M⁻¹ s⁻¹ and 14800 M⁻¹ s⁻¹ and 14400 M⁻¹ s⁻¹ | 28.1 nM | 0.00111 s⁻¹ | 36000 M⁻¹ s⁻¹ | 19.9 nM | 0.00091 s⁻¹ | 9.33 nM and 9.02 nM and 10.4 nM | 91800 M⁻¹ s⁻¹ and 144000 M⁻¹ s⁻¹ and 96500 M⁻¹ s⁻¹ | 46.6 nM and 88.7 nM and 70.7 nM | 0.00131 s⁻¹ and 0.0022 s⁻¹ and 0.00184 s⁻¹ | 28200 M⁻¹ s⁻¹ and 24800 M⁻¹ s⁻¹ and 26000 M⁻¹ s⁻¹ | 23.6 nM and 30.9 nM and 29.7 nM | 47000 M⁻¹ s⁻¹ and 28600 M⁻¹ s⁻¹ and 32100 M⁻¹ s⁻¹ | kon [6]: 46000 M⁻¹ s⁻¹; koff [7]: 0.000856 s⁻¹ and 0.0013 s⁻¹ and 0.00101 s⁻¹; koff [9]: 0.00111 s⁻¹ and 0.000885 s⁻¹ and 0.000951 s⁻¹; Kd [10]: 9.58 nM; koff [10]: 0.00121 s⁻¹; kon [10]: 111000 M⁻¹ s⁻¹; Kd [11]: 68.6 nM; koff [11]: 0.00179 s⁻¹; kon [11]: 26000 M⁻¹ s⁻¹
CCL26 (from UniProt Q9Y258 24-94) (ligand) | 9.99 nM and 8.95 nM and 8.79 nM | 0.000506 s⁻¹ and 0.000395 s⁻¹ and 0.000556 s⁻¹ | 50600 M⁻¹ s⁻¹ and 44200 M⁻¹ s⁻¹ and 63300 M⁻¹ s⁻¹ | 70.9 nM | 0.00099 s⁻¹ | 14000 M⁻¹ s⁻¹ | 56.4 nM and 69.6 nM and 86.6 nM | 17900 M⁻¹ s⁻¹ and 13300 M⁻¹ s⁻¹ and 12000 M⁻¹ s⁻¹ | 1.89 nM | 0.00048 s⁻¹ | 357000 M⁻¹ s⁻¹ | 9.24 nM | 0.00049 s⁻¹ | 0.183 nM and 0.176 nM and 0.197 nM | 2.75e+06 M⁻¹ s⁻¹ and 1.53e+06 M⁻¹ s⁻¹ and 3.62e+06 M⁻¹ s⁻¹ | 3.9 nM and 3.21 nM and 1.71 nM | 0.00136 s⁻¹ and 0.000659 s⁻¹ and 0.00101 s⁻¹ | 348000 M⁻¹ s⁻¹ and 205000 M⁻¹ s⁻¹ and 590000 M⁻¹ s⁻¹ | 1.25 nM and 1.65 nM and 2.78 nM | 384000 M⁻¹ s⁻¹ and 407000 M⁻¹ s⁻¹ and 280000 M⁻¹ s⁻¹ | koff [4]: 0.00101 s⁻¹ and 0.000925 s⁻¹ and 0.00104 s⁻¹; kon [6]: 53000 M⁻¹ s⁻¹; koff [7]: 0.000504 s⁻¹ and 0.000271 s⁻¹ and 0.000714 s⁻¹; koff [9]: 0.000481 s⁻¹ and 0.000673 s⁻¹ and 0.000777 s⁻¹; Kd [10]: 0.19 nM; koff [10]: 0.00078 s⁻¹; kon [10]: 2.63e+06 M⁻¹ s⁻¹; Kd [11]: 2.94 nM; koff [11]: 0.00101 s⁻¹; kon [11]: 381000 M⁻¹ s⁻¹

Reference: paper PMC10349104
